Assay [1] deals with human HLA-DR (allele not stated), on cells (human). As to the kind of experiment: Scatchard plot analysis, normal B cells against tumor cell line.
For assay [2] the target is unchanged. As to the kind of experiment: Scatchard plot analysis, avidity constant on tonsil lymphocytes.
Assay [3] has the same target. As to the kind of experiment: Scatchard plot analysis, avidity constant on ARH-77 myeloma cells.

B1: Lym-1 monoclonal antibody (antibody, V domains shown)
VH: QLKESGPGLVAPSQSLSITCTISGFSLTSYGVHWVRQPPGKGLEWLVVIWSDGSTTYNSALKSRLSISKDNSKSQVFLKMNSLQTDDTAIYYCASHYGSTLAFASWGHGTLVTVSA
VL: DIQMTQSPASLSASVGETVTIICRASVNIYSYLAWYQQKQGKSPQLLVYNAKILAEGVPSRFSGSGSGTQFSLKINSLQPEDFGSYYCQHHYGTFTFGSGTKLEIK
notes: Mouse (BALB/c) hybridoma monoclonal antibody raised against Raji Burkitt's lymphoma cell nuclei; detected with goat anti-mouse IgG
As to B1, the “fold decrease in binding affinity on normal B cells against tumor cells” value in assay [1] stood at 4 fold. Further, the Ka in assay [2] was 8.8e+07 M⁻¹.

B2: Lym-2 monoclonal antibody (antibody, V domains shown)
VH: EVQLEESGGGLVQPGGSMKLSCVASGFTFSNYWMNWVRQSPEKGLEWVAEIRFKSHNYATHFAESVKGRFTISRDDSKSSVYLQMNNLRAEDTGIYYCTRRIGNSDYDWWYFDVWGAGTSVTVSS
VL: DIVMTQSHKFMSTSVGDRVSVTCKASQNVGNNVAWYQQKPGQSPKVLIYSASYRYSGVPDRFTGSGSGTDFTLTISNVQSEDLAEYFCQQYNTYPFTFGSGTKLEIK
notes: Mouse (BALB/c) hybridoma monoclonal antibody raised against CLL biopsy cell nuclei; detected with goat anti-mouse IgG
For the molecule B2, the “fold decrease in binding affinity on normal B cells against tumor cells” value in assay [1] was found to be 2 fold. Also, the values for the Ka in assay [3] and in assay [2] were 2.33e+08 M⁻¹ and 1.23e+08 M⁻¹, respectively.
